As usually defined, the Kd is the equilibrium constant for the complex coming apart.

The record followed here is paper PMC3772987.

One series deals with BosR tag-free (Borrelia burgdorferi B31, UniProt O51592 1-176, M1R). The experiment in a line: fluorescence anisotropy. In general terms: Fluorescence polarisation rises when a labelled molecule tumbles more slowly, as on binding a larger partner.
For the next series, the target named is His6-BosR (Borrelia burgdorferi B31, UniProt O51592 2-176). The series is described as follows: fluorescence anisotropy.

B1: FPospD (dsDNA)
DNA 1: ATAATTGATATTAAAATATAATTGAT
DNA 2: ATCAATTATATTTTAATATCAATTAT
Take B1: the Kd with BosR tag-free was 332 nM; with His6-BosR, 262 nM.

B2: FPospAB (dsDNA)
DNA 1: TAATCTTATAATATAATTATACTT
DNA 2: AAGTATAATTATATTATAAGATTA
As for B2, the Kd came out at 307 nM with BosR tag-free and 222 nM with His6-BosR.
